Results taken from patent publication US12508311B2, “Fusion protein, and preparation method and use thereof” (SUN YAT-SEN UNIVERSITY, priority 2021, dated 2025).
Where a chain is given by its changes, count along the chain named.

B1: TKD: fusion protein: tumour-cell-penetrating peptide BR2, anti-KRas nanobody VHH and lysosome recognition peptide CTM; SEQ ID NO.4 (protein)
chain: RAGLQFPVGRLLRRLLRDVQLQESGGGLVQAGGSLRLSCVASGRTFSTYPTGWFRQAPGKEREFVARINLSGGITNYADSVKGRFTISRDNAKNTVYLQMNSLKPEDTAVYYCGGGSTTWAGGIPTNFDYWGQGTQVTVSSGRKFERQKILDQRFFE
B2: TKDm: control molecule of TKD with mutated CTM fragment (CTMmt) which could not be recognized by a lysosome; SEQ ID NO.5 (protein)
chain: B1 chain with Q148A, Q153A

Columns and labels:
[1] = test system: signal pathway KRas/Raf/ERK/c-myc in KRas mutant-type cells HCT116; assay: Western blot of EGFR downstream signal pathway, HCT116; assay type: cell-based, human; conditions: 10 and 20 μg/mL, 24 hours, compared with control TKDm
Procedure: (§1) • (1) The colorectal cancer cells HCT116 (KRas G13D) and HT29 (KRas wt) were respectively spread in six-well plates, 500,000 cells per well. […] Then, the digestion was stopped with 1 mL of complete culture solution per well, the cell suspension was collected into a 1.5 mL EP tube, and centrifuged at the room temperature and 300 g for 3 minutes to collect cells. The cells were resuspended with 1 mL of PBS, and repeatedly centrifuged once. • (3) The supernatant was removed, 100 μL of lysate was added in each group (item number: P0013G; purchased from Beyotime Biotechnology Company). The cells were lysed on ice, vortically vibrated every 5 minutes, and centrifuged at 4° C. and 12,000 rpm for 30 minutes after being lysed for 30 minutes, and the supernatant was collected in a new 1.5 mL EP tube. • (4) The protein concentration was measured by the BCA method, and 20 μg of protein was taken from each group for SDS denaturation gel electrophoresis, transferred and blocked with 5% skim milk for 1 hour.

[2] = Toxic and side effects in mice (body weight, HE histopathology); assay type: in vivo; conditions: 25 and 50 mg/kg intraperitoneal, seven times (3 weeks)
Procedure: • (1) Balb/c nude mice, female, 4 weeks to 5 weeks old, purchased from Guangdong Laboratory Animal Center and raised in Laboratory Animal Center of Sun Yat-sen University, were used in this experiment. […] The mice were administered once every three days at a fixed time. Meanwhile, changes in body state, mental state and weight of the mice were observed and recorded. • (3) After continuous administration for seven times (3 weeks), the mice were euthanized (killed by cervical dislocation). […] All the animal experiments were carried out within relevant regulations of animal ethics of Sun Yat-sen University.

[3] = Residence time in vivo (serum western blot); set-up: species or system mice
Procedure: • (1) Balb/c nude mice, female, 4 weeks to 5 weeks old, purchased from Guangdong Laboratory Animal Center and raised in Laboratory Animal Center of Sun Yat-sen University, were used in this experiment. […] The serum protein concentration was measured by the BCA method (as described above). 20 μg of serum protein was respectively taken for the WB experiment (as described above), and whole serum protein gel running and Coomassie brilliant blue staining. • (4) Experimental results were shown in FIG. 19.

[4] = test system: signal pathway KRas/Raf/ERK/c-myc in KRas wild-type cells HT29; assay: Western blot of EGFR downstream signal pathway, HT29; assay type: cell-based, human; conditions: 10 and 20 μg/mL, 24 hours, compared with control TKDm
Procedure: as §1

[5] = target: T1, wild-type KRas protein in HT29 (KRas wt) cells (Homo sapiens, UniProt P01116); assay: Western blot of KRas degradation in HT29 cells; assay type: cell-based; conditions: for degradation of KRas protein, concentration-dependency (western blot): 0-20 μg/ml
T1 construct: host or cells: HT29
Procedure: • (1) Source and culture of cells: human colorectal cancer cells HT29 (KRas wt) and human colorectal cancer cells HCT116 (KRas G13D) came from American Type Culture Collection (ATCC) (item number: HTB-38, CCL-247). HT29 and HCT116 cells were all cultured in the 1640 culture medium added with 10% fetal bovine serum (FBS), under 5% CO2 at 37° C. • (2) The colorectal cancer cells HCT116 and HT29 were respectively spread in six-well plates, 500,000 cells per well. […] 2,000 μL of DMEM complete culture solution was added into each well and mixed evenly, and the cells were cultured at 37° C. for 24 hours. • (3) The cells were cleaned with PBS twice, and 0.5 mL of 0.25% pancreatin was added into each well to digest the cells and make the cells fall off from the culture dish wall. Then, the digestion was stopped with 1 mL of complete culture solution per well, the cell suspension was collected into a 1.5 mL EP tube, and centrifuged at the room temperature and 300 g for 3 minutes to collect the cells. The cells were resuspended with 1 mL of PBS, and repeatedly centrifuged for one time. • (4) The supernatant was removed, and 100 μL of lysate was added in each group (item number: P0013G; purchased from Beyotime Biotechnology Company). The cells were lysed on ice, vortically vibrated every 5 minutes, and centrifuged at 4° C. and 12,000 pm for 30 minutes after being lysed for 30 minutes, and the supernatant was collected into a new 1.5 mL EP tube. • (5) The protein concentration was measured by the BCA method, and 30 μg of protein was taken from each group for SDS denaturation gel electrophoresis, transferred and blocked with 5% skim milk for 1 hour. Then, KRas (source: Proteintech; item number: 12063-1-AP) and β-tublin (source: Proteintech; item number: 10094-1-AP) primary antibodies were added by a ratio of 1:2,000, and shaken overnight at 4° C. to remove the antibodies. The membrane was washed with TBST for three times, 10 minutes each time. The rabbit secondary antibody labeled with corresponding HRP (source: TransGen Company; item number: HS101-01) was added for dilution with the ratio of 1:3,000 and incubated in shaking at the room temperature for 1 hour, and the membrane was cleaned with TBST for three times, 10 minutes each time. The antibody was luminously developed in the dark room of the ELC luminescent kit. Concentrations of all the primary antibodies were 1:2,000 (1 […] diluted in 2,000 μL of primary antibody diluent).
The protein concentrations were measured by BCA, and 30 μg of protein was taken respectively and stored in a refrigerator at −20° C. for later use. • (3) Western blot experiment was carried out on collected protein samples.

[6] = test system: HT29 cells; assay: Flow cytometry of tumor cell targeting, HT29; assay type: cell-based, human; conditions: tested as 60 nM TKD-Cy5, 1 hour, Lys 05 10 μM
Procedure: Wherein, the protein C18 column (25 cm×10 mm) was used, with sample injection of 2×400 μL each time, and gradient elution was carried out for 30 minutes, 0.1% TFA (trifluoroacetic acid) solution to MeCN (acetonitrile): H2O (0.1% TFA)=70:30, and a flow rate was 4 mL/min. • (4) Target color tape peaks were collected, and the retention time of a labeled polypeptide was longer than that of an unlabeled polypeptide. • (5) The TKD-Cy5 molecule was diluted to 60 μM, and stored in a PBS solution, and kept in the dark at −20° C. 2. […] The cells were treated with corresponding drugs, namely, in the experimental groups, the cells were treated with 60 nM TKD-Cy5 coupling molecule, and in the control groups, the cells were treated with the Cy5 single molecule with corresponding concentration. The lysosome inhibitor Lys 05 with the final concentration of 10 μM was added into the control groups and the experimental groups at the same time, and the final volume of the culture solution in each well was 1 mL. […] The cells were resuspended with the PBS buffer solution, and centrifuged again, and the supernatant was discarded. The operation was repeated for three times. Finally, the cleaned cells were resuspended in 0.2 mL of PBS, wrapped with foil paper, and then analyzed on the flow cytometer (company: BECKMAN COULTER; model: Cytoflex), with the fluorescence channel of APC-A.

Molecule	inhibition of activation of EGFR downstream signal pathway KRas/Raf/ERK/c-myc (western blot) [1]	changes in body weight ([2]; once every three days, vs PBS)	pathological analysis of lung, liver, spleen and kidney (HE) [2]	detection in serum after administration (western blot) ([3]; 50 mg/kg intraperitoneal once, 3 days after administration)	half-life period in vivo ([3]; inferred from serum detection 3 days after 50 mg/kg)	inhibition of activation of EGFR downstream signal pathway KRas/Raf/ERK/c-myc (western blot) [4]	degradation of KRas, influence of administration time ([5]; 10 and 20 μg/mL, 1, 2, 6, 12, 24 hours, cell line not restated (FIG. 12))	degradation of KRas protein, concentration-dependency (western blot) ([5]; HT29, 24 hours)	degradation effect on KRas at 10 ug/mL and 20 ug/mL ([5]; HT29, FIG. 11, 24 hours)	entry into cells (flow cytometry, Cy5 fluorescence) [6]
B1	could significantly inhibit the activation of the EGFR downstream signal pathway KRas/Raf/ERK/c-myc	did not show obvious changes in body weight	did not damage vital organs including lung, liver, spleen and kidney of the mice	could still be detected	long	could significantly inhibit the activation of the EGFR downstream signal pathway KRas/Raf/ERK/c-myc	could rapidly degrade KRas, and the degradation was time-dependent within a certain range	could cause degradation of expression levels of the wild-type and mutant-type KRas proteins in the colorectal cancer cells, and the degradation degree was increased with the increase of the concentration	the degradation effect on KRas was obvious	could specifically recognize and pass through the cell membrane to enter the colorectal cancer cells
B2								could not play a similar role		
